Data reported in patent US20140087995A1 (published 2014).
Numbered stars: 1 amine (or outer) side, 2 acyl side, 3 side chain; on linkers, the order of the positions; unused ones are H or OH. Bridge positions count the residues as written; N and C are the ends. Side chains are listed from the residue outwards. Ends that are not written are not given here. * marks the point of attachment. C20 diacid = O=C(O)CCCCCCCCCCCCCCCCCCC(=O)*; γGlu = O=C(O)[C@H](CCC(=O)[*:2])N[*:1]; AEEA = NCCOCCOCC(=O)O

T1: human amylin receptor (amylin 3(a) receptor: human calcitonin receptor with RAMP-3) (human, UniProt P30988 25-474; O60896 24-148)
T1 construct: whole, on cells; Assay used cell membranes of the Amylin 3(a)/CRE-luc BHK cells, not intact cells; also called hAmylin-R; hAmylinR
T1 sequence (looked up) 1: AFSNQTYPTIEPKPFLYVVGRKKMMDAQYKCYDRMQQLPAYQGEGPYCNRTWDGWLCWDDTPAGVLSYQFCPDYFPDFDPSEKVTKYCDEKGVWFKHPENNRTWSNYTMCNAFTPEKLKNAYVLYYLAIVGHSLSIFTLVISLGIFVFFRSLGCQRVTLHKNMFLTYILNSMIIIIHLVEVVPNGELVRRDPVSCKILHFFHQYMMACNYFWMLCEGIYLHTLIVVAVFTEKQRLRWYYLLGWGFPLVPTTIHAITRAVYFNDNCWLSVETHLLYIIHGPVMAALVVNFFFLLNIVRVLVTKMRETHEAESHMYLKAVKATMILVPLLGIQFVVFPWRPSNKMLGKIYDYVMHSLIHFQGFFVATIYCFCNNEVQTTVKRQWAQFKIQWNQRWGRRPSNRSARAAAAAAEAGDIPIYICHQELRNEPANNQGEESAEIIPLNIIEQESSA
T1 sequence (looked up) 2: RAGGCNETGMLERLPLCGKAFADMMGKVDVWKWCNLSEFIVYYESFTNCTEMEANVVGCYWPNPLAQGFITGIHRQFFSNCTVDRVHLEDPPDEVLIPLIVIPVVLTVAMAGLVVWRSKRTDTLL

T2: human calcitonin receptor (human, UniProt P30988 25-474)
T2 construct: whole, on cells; Assay used cell membranes, not intact cells; also called hCTR; hCT
T2 sequence (looked up): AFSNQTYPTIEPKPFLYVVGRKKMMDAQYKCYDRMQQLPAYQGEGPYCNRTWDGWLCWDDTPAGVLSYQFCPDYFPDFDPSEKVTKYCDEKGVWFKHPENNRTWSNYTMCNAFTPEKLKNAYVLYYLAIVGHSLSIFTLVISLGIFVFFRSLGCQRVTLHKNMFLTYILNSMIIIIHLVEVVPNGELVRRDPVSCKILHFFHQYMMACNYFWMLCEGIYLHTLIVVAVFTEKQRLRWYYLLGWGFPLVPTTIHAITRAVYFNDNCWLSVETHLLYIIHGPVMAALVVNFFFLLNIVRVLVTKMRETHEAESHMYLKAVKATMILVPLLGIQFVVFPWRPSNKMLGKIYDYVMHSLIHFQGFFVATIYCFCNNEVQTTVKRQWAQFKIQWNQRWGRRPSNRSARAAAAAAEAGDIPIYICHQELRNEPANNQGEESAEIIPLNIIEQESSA


Columns and labels:
[1] = molecular target: T1, human amylin receptor (amylin 3(a) …); assay: SPA competition with 125I-rat amylin on membranes of BHK cells with human calcitonin receptor and RAMP-3 (Assay V)
Method: The binding assay was performed using scintillation proximity assay (SPA) beads (RPNQ0001) from PerkinElmer and cell membranes from the Amylin 3(a)/CRE-luc cells (as described in Assay (II)) were used. Membranes were prepared in the following way; the cells were rinsed with PBS and incubated with Versene for approximately 5 min before harvesting. The cells were flushed with PBS and the cell-suspension was centrifuged for 5 min at 1000 rpm. Cells were homogenized (ultrathurrax) in a buffer containing 20 mM Na-HEPES and 10 mM EDTA (pH 7.4) and centrifuged at 20.000 rpm for 15 min. The resulting pellet was resuspended, homogenized and centrifuged (20.000 rpm, 15 min) in a buffer containing 20 mM Na-HEPES and 0.1 mM EDTA (pH 7.4, buffer 2). The resulting pellet was resuspended in buffer 2 and protein concentration was measured (BCA protein Assay, Pierce). The homogenate was kept cold during the whole procedure. The membranes were kept at −80° C. until use. The assay was performed in a 384 well Optiplate (PerkinElmer) in a total volume of 40 ul. Membranes were mixed with SPA beads. Final concentration of membranes 35 ng/μL final and SPA beads was 0.05 mg/well. Test-compounds were dissolved in DMSO and further diluted in assay buffer (50 mM Hepes, pH 7.4, 1 mM CaCl2, 5 mM MgCl₂, 0.1% OA and 0.02% Tween20). […] The final mixture was incubated with shaking at 400 rpm for 120 min at 25° C. prior to centrifugation (1500 rpm, 10 min). Samples were analyzed on TopCounter™ (Packard). The IC₅₀ was calculated using (one site binding competition analysis) GraphPad Prism5 as a measure of receptor affinity.

[2] = molecular target: T2, human calcitonin receptor; assay: SPA competition with 125I-calcitonin on membranes of BHK cells with human calcitonin receptor (Assay VII)
Method: Membranes were prepared in the following way; the cells were rinsed with PBS and incubated with Versene for approximately 5 min before harvesting. The cells were flushed with PBS and the cell-suspension was centrifuged for 5 min at 1000 rpm. Cells were homogenized (Ultrathurrax) in a buffer containing 20 mM Na-HEPES and 10 mM EDTA (pH 7.4) and centrifuged at 20.000 rpm for 15 min. The resulting pellet was resuspended, homogenized and centrifuged (20.000 rpm, 15 min) in a buffer containing 20 mM Na-HEPES and 0.1 mM EDTA (pH 7.4, buffer 2). The resulting pellet was resuspended in buffer 2 and protein concentration was measured (BCA protein Assay, Pierce). The homogenate was kept cold during the whole procedure. The membranes were kept at −80° C. until use. Assay was performed in a 384 well Optiplate (PerkinElmer) in a total volume of 40 ul. Membranes were mixed with SPA beads. Final concentration of membranes 35 ng/μL final and Final concentration of SPA beads was 0.05 mg/well. Test-compounds were dissolved in DMSO and further diluted in assay buffer (50 mM Hepes, pH 7.4, 1 mM CaCl2, 5 mM MgCl₂, 0.1% OA and 0.02% Tween20). […] The final mixture was incubated for 120 min with shaking at 400 rpm at 25° C. prior to centrifugation (1500 rpm, 10 min). Samples were analyzed on TopCounter™ (Packard). The […] was calculated using (one site binding competition analysis) GraphPad Prism5 as a measure of receptor affinity.

[3] = molecular target: T2, human calcitonin receptor; assay: ratio IC50 hCTR / IC50 hAmylin-R (reference: human amylin receptor), SPA competition assays
Method: The resulting pellet was resuspended, homogenized and centrifuged (20.000 rpm, 15 min) in a buffer containing 20 mM Na-HEPES and 0.1 mM EDTA (pH 7.4, buffer 2). The resulting pellet was resuspended in buffer 2 and protein concentration was measured (BCA protein Assay, Pierce). The homogenate was kept cold during the whole procedure. The membranes were kept at −80° C. until use. The assay was performed in a 384 well Optiplate (PerkinElmer) in a total volume of 40 ul. Membranes were mixed with SPA beads. Final concentration of membranes 35 ng/μL final and SPA beads was 0.05 mg/well. Test-compounds were dissolved in DMSO and further diluted in assay buffer (50 mM Hepes, pH 7.4, 1 mM CaCl2, 5 mM MgCl₂, 0.1% OA and 0.02% Tween20). […] The final mixture was incubated with shaking at 400 rpm for 120 min at 25° C. prior to centrifugation (1500 rpm, 10 min). Samples were analyzed on TopCounter™ (Packard). The IC₅₀ was calculated using (one site binding competition analysis) GraphPad Prism5 as a measure of receptor affinity.
Membranes were prepared in the following way; the cells were rinsed with PBS and incubated with Versene for approximately 5 min before harvesting. The cells were flushed with PBS and the cell-suspension was centrifuged for 5 min at 1000 rpm. Cells were homogenized (Ultrathurrax) in a buffer containing 20 mM Na-HEPES and 10 mM EDTA (pH 7.4) and centrifuged at 20.000 rpm for 15 min. The resulting pellet was resuspended, homogenized and centrifuged (20.000 rpm, 15 min) in a buffer containing 20 mM Na-HEPES and 0.1 mM EDTA (pH 7.4, buffer 2). The resulting pellet was resuspended in buffer 2 and protein concentration was measured (BCA protein Assay, Pierce). The homogenate was kept cold during the whole procedure. The membranes were kept at −80° C. until use. Assay was performed in a 384 well Optiplate (PerkinElmer) in a total volume of 40 ul. Membranes were mixed with SPA beads.

| IC50 [1] [nM] | IC50 [2] [nM] | Ratio hCT/hAmylin binding [3] | Binder |
| --- | --- | --- | --- |
| 0.061 | 2.57 | 42.2 | K([AEEA-C20 diacid])CNTATCATQRLAHFLRHSSPNFGAIPSSTNVGSNTY-NH2 (disulfide 2-7; N-terminus assumed; SMILES CC[C@H](C)[C@H](NC(=O)[C@H](C)NC(=O)CNC(=O)[C@H](Cc1ccccc1)NC(=O)[C@H](CC(N)=O)NC(=O)[C@@H]1CCCN1C(=O)[C@H](CO)NC(=O)[C@H](CO)NC(=O)[C@H](Cc1c[nH]cn1)NC(=O)[C@H](CCCNC(=N)N)NC(=O)[C@H](CC(C)C)NC(=O)[C@H](Cc1ccccc1)NC(=O)[C@H](Cc1c[nH]cn1)NC(=O)[C@H](C)NC(=O)[C@H](CC(C)C)NC(=O)[C@H](CCCNC(=N)N)NC(=O)[C@H](CCC(N)=O)NC(=O)[C@@H](NC(=O)[C@H](C)NC(=O)[C@@H]1CSSC[C@H](NC(=O)[C@@H](N)CCCCNC(=O)COCCOCCNC(=O)CCCCCCCCCCCCCCCCCCC(=O)O)C(=O)N[C@@H](CC(N)=O)C(=O)N[C@@H]([C@@H](C)O)C(=O)N[C@@H](C)C(=O)N[C@@H]([C@@H](C)O)C(=O)N1)[C@@H](C)O)C(=O)N1CCC[C@H]1C(=O)N[C@@H](CO)C(=O)N[C@@H](CO)C(=O)N[C@H](C(=O)N[C@@H](CC(N)=O)C(=O)N[C@H](C(=O)NCC(=O)N[C@@H](CO)C(=O)N[C@@H](CC(N)=O)C(=O)N[C@H](C(=O)N[C@@H](Cc1ccc(O)cc1)C(N)=O)[C@@H](C)O)C(C)C)[C@@H](C)O, also called compound 90) [N^ε1-[2-[2-[2-(19-carboxynonadecanoylamino)ethoxy]ethoxy]acetyl]-[His14,Arg17,Pro21,Pro27]-h-amylin] |
| 0.967 | 61.3 | 63.4 | K([AEEA-AEEA-γGlu-C20 diacid])CNTATCATQRLANFLRHSSPNFGAIPSSTNVGRNTY-NH2 (disulfide 2-7; N-terminus assumed; SMILES CC[C@H](C)[C@H](NC(=O)[C@H](C)NC(=O)CNC(=O)[C@H](Cc1ccccc1)NC(=O)[C@H](CC(N)=O)NC(=O)[C@@H]1CCCN1C(=O)[C@H](CO)NC(=O)[C@H](CO)NC(=O)[C@H](Cc1c[nH]cn1)NC(=O)[C@H](CCCNC(=N)N)NC(=O)[C@H](CC(C)C)NC(=O)[C@H](Cc1ccccc1)NC(=O)[C@H](CC(N)=O)NC(=O)[C@H](C)NC(=O)[C@H](CC(C)C)NC(=O)[C@H](CCCNC(=N)N)NC(=O)[C@H](CCC(N)=O)NC(=O)[C@@H](NC(=O)[C@H](C)NC(=O)[C@@H]1CSSC[C@H](NC(=O)[C@@H](N)CCCCNC(=O)COCCOCCNC(=O)COCCOCCNC(=O)CC[C@H](NC(=O)CCCCCCCCCCCCCCCCCCC(=O)O)C(=O)O)C(=O)N[C@@H](CC(N)=O)C(=O)N[C@@H]([C@@H](C)O)C(=O)N[C@@H](C)C(=O)N[C@@H]([C@@H](C)O)C(=O)N1)[C@@H](C)O)C(=O)N1CCC[C@H]1C(=O)N[C@@H](CO)C(=O)N[C@@H](CO)C(=O)N[C@H](C(=O)N[C@@H](CC(N)=O)C(=O)N[C@H](C(=O)NCC(=O)N[C@@H](CCCNC(=N)N)C(=O)N[C@@H](CC(N)=O)C(=O)N[C@H](C(=O)N[C@@H](Cc1ccc(O)cc1)C(N)=O)[C@@H](C)O)C(C)C)[C@@H](C)O, also called compound 95) |
| 0.568 | 58.9 | 104 | K([AEEA-AEEA-γGlu-C20 diacid])CNTATCATQRLANFLRHSSPNFGAIPSSTNVGHNTY-NH2 (disulfide 2-7; N-terminus assumed; SMILES CC[C@H](C)[C@H](NC(=O)[C@H](C)NC(=O)CNC(=O)[C@H](Cc1ccccc1)NC(=O)[C@H](CC(N)=O)NC(=O)[C@@H]1CCCN1C(=O)[C@H](CO)NC(=O)[C@H](CO)NC(=O)[C@H](Cc1c[nH]cn1)NC(=O)[C@H](CCCNC(=N)N)NC(=O)[C@H](CC(C)C)NC(=O)[C@H](Cc1ccccc1)NC(=O)[C@H](CC(N)=O)NC(=O)[C@H](C)NC(=O)[C@H](CC(C)C)NC(=O)[C@H](CCCNC(=N)N)NC(=O)[C@H](CCC(N)=O)NC(=O)[C@@H](NC(=O)[C@H](C)NC(=O)[C@@H]1CSSC[C@H](NC(=O)[C@@H](N)CCCCNC(=O)COCCOCCNC(=O)COCCOCCNC(=O)CC[C@H](NC(=O)CCCCCCCCCCCCCCCCCCC(=O)O)C(=O)O)C(=O)N[C@@H](CC(N)=O)C(=O)N[C@@H]([C@@H](C)O)C(=O)N[C@@H](C)C(=O)N[C@@H]([C@@H](C)O)C(=O)N1)[C@@H](C)O)C(=O)N1CCC[C@H]1C(=O)N[C@@H](CO)C(=O)N[C@@H](CO)C(=O)N[C@H](C(=O)N[C@@H](CC(N)=O)C(=O)N[C@H](C(=O)NCC(=O)N[C@@H](Cc1c[nH]cn1)C(=O)N[C@@H](CC(N)=O)C(=O)N[C@H](C(=O)N[C@@H](Cc1ccc(O)cc1)C(N)=O)[C@@H](C)O)C(C)C)[C@@H](C)O, also called compound 97) |
